The data set can be described thus: yeast display, Sf9 membrane polyspecificity reagent, FACS + sequencing; frameworks hold sequencing errors. A digest of the protocol: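 In a synthetic yeast display library (Saccharomyces cerevisiae BJ5465), nanobody expression was induced with galactose for 36–48 hours. FACS gates were set low and high (top ~1%) using anti-HA fluorescence for expression and streptavidin fluorescence for binding of the Sf9 membrane reagent. Each polyreactivity label is drawn from the gate of origin.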
For the sequence “QVQLVESGGGLVQAGGSLRLSCAASGRTFRIYAMGWYRQAPGKERELVAAIRWSGGTTYYADSVKGRFTISRDNAKNTVYLQRNSLKPEDTAVYYCAADSTNRYDYWGQGTQVTVSS”, the “polyreactivity (PSR sort gate)” value was “high polyreactivity”.

In the case of “QVQLVESGGGLVQAGGSLRLSCAPSGSTFYSNAMGWYRQAPGKERELVASISWSSGSTYYADSVKGRFTISRDNAKNTVYLQMNSLKPEDTAVYYCNKRPVILYDYWGQGTQVTVSS”, the “polyreactivity (PSR sort gate)” value is listed as “low polyreactivity”.

“QVQRVESGGGLVQAGGSHRLSCAASGSIFVVYTMGWYRPAPGKERELVAAITQNGGSSTYYADSVKGRFTISRDNAKNTVYLQMNSLKPEDTAVYYCNKDILSPVVRIFKYGYDMDYWGQGTQETVSS”: the “polyreactivity (PSR sort gate)” value is recorded as “low polyreactivity”.

With “QVQLVESGGGLVQAGGSLRLSCAASGSIFRKYAMGWYRQAPGKEREFVAVITTDGSTNYADSVKRRFTISRDNAKNTVYLQMNSLKPEDTAVYYCNAFRSSIGTDNDFWGQGTQVTVSS”, the “polyreactivity (PSR sort gate)” value is recorded as “low polyreactivity”.

For the sequence “QVQLVESGGGLVQAGGSLRLSCAASGRIFLWNAMGWYRQAPGKERELVAAISWSGGSTYYADSVKGRFTISRDNAKNTVYLQMNSLKPEDTAVYYCNRLLSLEYGYWGQGTQVTVSS”, the “polyreactivity (PSR sort gate)” value is given as “high polyreactivity”.

As for “QVQLVESGGGLVQAGGSLRLSCAASGSTFEGNDMGWYRQAPGKERELVAAITTGAGTNYADSVKGRFTISRDNAKNTVYLQMNSLKPEDTAVYYCATRVYWYYDPYYSKYTYDYWGQGTQVTVSS”, the “polyreactivity (PSR sort gate)” value is “low polyreactivity”.

In the case of “QVQLVESGGGLVQAGGSLRLSCAASGGISAFNSMGWYRQAPGKERELVAAINYRGGTTYYADSVKGRFTISRDNAKNTVYLQMNSLKPEDTAVYYCNKPYYSSTYYYWGQGTQVTVSS”, the “polyreactivity (PSR sort gate)” value is recorded as “low polyreactivity”.

“QVQLVESGGGLVQAGGSLRLSSAASGSIFWVYAMGWYRQAPGKERELVAAISNRGGSTYYADSVKGRFTISRDNAKNTVYLQMNSLKPEDTAVYYCAAVVAHHYYWGQGTQVTVSS”: the “polyreactivity (PSR sort gate)” value is on record as “high polyreactivity”.

For the sequence “QVQLVESGGGLVQAGGSLRLSCAASGSIFYRNTMGWYRQAPGKERELVASINTGTGTYYADSVKGRFTISRDNAKNTVYLQMNSLKPEDTAVYYCNKVSYVKYGYWGQGTQVTVSS”, the “polyreactivity (PSR sort gate)” value was “high polyreactivity”.

With “QVQRVESGGGLVQAGGSLRLSCAASGFIISWYAMGWSRQAPGKERELVAAISSGGSTTYADSVKGRFTISRDNAKNTVSLQMNSLKPEDTAVYYCNADQVYGYNYWGQGTQVTVSS”, the “polyreactivity (PSR sort gate)” value is reported as “high polyreactivity”.

For “QVQLVESGGGLVQAGGSLRLSCAASGRTFPGYAMGWYRQATGKERELVAGISYRGGSTYYADSVKGRITISRDTAKNTVYFQINSLKPVDTAVYYCARDYSRHKGDYWGQGTQVTVSS”, the “polyreactivity (PSR sort gate)” value was “low polyreactivity”.

Regarding “QLQLVESGGGLVQAGGSLRLSCAASGSTFRFNTMGWYRQAPGKERGLVACIAAGTTTNYADSVKGRFTISRDNAKNTVYLQMNSLKPEDAAVYYCAALNAFNTGHWYWGQGTQVTVSS”, the “polyreactivity (PSR sort gate)” value is reported as “low polyreactivity”.

As to “QVQLVESGGGLVQAGGSLRLSCAASGRIITAYAMGWYRQAPGKEREFVAAINVSGGSTYYADSVKGRFTISRDNAKNTVYLQMDSLKPEDSAVYYCNADYYYYDIYWWQMDYWGQGTQVTVSS”, the “polyreactivity (PSR sort gate)” value is recorded as “low polyreactivity”.

On to “QVQLVESGGGLVQAGGSLRLSCAASGSIFRGYAMGWYRQAPGKERELVASIRWRGGRTNYADSVKGRFTISRDNAKNTVYLQRNSLKPEDTAVYYCNADQQTIRSAKNDYWGQGTQVTVSS”, for which the “polyreactivity (PSR sort gate)” value is given as “low polyreactivity”.

With “QVQLVESGGGLVQAGGSLRLSCAASGFTFQFNAMGWYRQAPGKERELVAAITWSGDSTYYADSVKGRFTISRDNAKNTVYLQMISLKPEDTAVYYCNADYGWVDTYTNYDYWGQGTQVTVSS”, the “polyreactivity (PSR sort gate)” value is on record as “low polyreactivity”.

Consider “QVQLVESGGGLVQAGGSLRLSCAASGFTITAYAMGWYRQAPGKERELVAAISYSGGRTYYADSVKGRFTISRDIAKNTVYLQMNSLKTEDTAVYYCYAVLAHYQSLVYWGQGSQVTVSS”, for which the “polyreactivity (PSR sort gate)” value is listed as “high polyreactivity”.

In the case of “QVQLVESGGGFVQAGGSLRLSCAASGSTFPVYAMGWYRQAPGKERELVAAISRSGASTYYADSVKGRFTISRDNAKNTVYLQMNSLKPEDTAVYYCARGYQGRLKNEYWGQGTQVNVSS”, the “polyreactivity (PSR sort gate)” value is recorded as “low polyreactivity”.

Turning to “QVQHVESGGGLVQAGGSLRLSCAASGSTIQNNAMGWYRQPPGKERELVAAMNNGGSTNYADSVKGRFTISRDNAKNTVYLQMNSLIPEDSAGYYCNTDRHHADYQWGWPSAFEEFGYWGLGTQVTVSS”, the “polyreactivity (PSR sort gate)” value is reported as “low polyreactivity”.

Consider “QVQIEESGGALVQEGGSLRLSRAASGRTFYYYAMGWYRQAPGKERELVAGIDFSSGSTYYADSVKGRFTISRDNAKNTVYLQMNSLKPEDTAVYYCAAKWHVRGRGARYRYDYDYWGQGTQVTVSS”, for which the “polyreactivity (PSR sort gate)” value is given as “low polyreactivity”.

With “QVQLVESGGGLVQAGGSLRLSCAASGFIFIGYAMGWYRHAPGKERELVAAISWSGGSTYYADSVKGRFTISRDNAKNTVYLQMNSLKPEDTAVYYCNAVLYRFAYNYWGQGTQVTVSS”, the “polyreactivity (PSR sort gate)” value was “low polyreactivity”.

Consider “QVQLVESGGGLVQAGGSLRLSCDASGFIIRRNAMGWYRQAPGKEREFVAAITWSGGSTYYADSVKGRFTISRDNAKNTVYLQMYSLKPEDTAVYYCAATYSQYWYTQYLNSYPGYDYWRQGTQVTVSS”, for which the “polyreactivity (PSR sort gate)” value is on record as “low polyreactivity”.

Turning to “QVQLVESGGGLVQAGGSLRLSCAASGLTFYLYAMGWNRQAPGKERELVAAINSRGGNTYYADSVKGRFTISRDNAKNTVYLQMNSLKPEDTAVYYCNAGRTFYSYAYGYWGQGTQVTVSS”, the “polyreactivity (PSR sort gate)” value is given as “high polyreactivity”.

For the sequence “QVQLVESGGGLVQAGGSLRLSCAASGRIFWGYDMGSYRQAPGKQTEFVAAISSGGGRTYYADSVKGRFTISRDNAKNPVYLPMNSLKPEDTAVYYCNAELNWYYYIHLDYWGQGTQVTVSS”, the “polyreactivity (PSR sort gate)” value is on record as “low polyreactivity”.

With “QVQLVESGGGLVQAGGSLRLSCAASGFIFKRYAMGWYRQAPGKERELVAAITLSGGDTYYADSVKGRFTISRDNAKNTVYLQMNSLKPEDTAVYYCAARYMSTRTLYYYWGQGTQVTVSS”, the “polyreactivity (PSR sort gate)” value was “high polyreactivity”.

In the case of “QVQLVESGGGLVQAGGSLRLSCAASGHTYRYYAMGWYRQAPGKERELVAAITGGGGSTYYADSVKGRFTISRDNAKNTVYLQMNSLKPEDTAVYYCATGGVSGIVGGDYWGQGTQVTVSS”, the “polyreactivity (PSR sort gate)” value is “low polyreactivity”.

For the sequence “QFQLVESGGGSVQAGGSLRLSCAASGSTFDYNMGWYRQAPGKERELVATIRSDGRTNYADSVKGRFTISRDNAKNTVYLQMNSLKPEDTAVYYCAADVYAYVDDFGGYDYWGQGTQVTVSS”, the “polyreactivity (PSR sort gate)” value is recorded as “low polyreactivity”.

For “QVQLVESGGGLVQAGGSLRLSCAASGYTFVTYAMGWYRQAPGKERELVAAISYTGGSTYYADSVKGRFTISRDNAKNTVYLQMNSLKPEDTAVYYCATLRNHYRYDYWGQGTQVTVSS”, the “polyreactivity (PSR sort gate)” value is on record as “low polyreactivity”.

Turning to “QVQLVESGGGLVQAGGSLRLSCAASGLTFTVYGMGWSRQAPGKEREFVATISRRGGRTYYADSVKGRFTISRDNAKNTVYVLLNSLKPEDTAVYYCNADIGTYVRSGGGDYWGQGTQVTVSS”, the “polyreactivity (PSR sort gate)” value is “low polyreactivity”.

As to “QVQLVESGRGLVQAGGTLRLSCAPYGRTFYPIAMAWYRQAPGKDRELVAAISYSGGSTYYADSVKGRFTISRDNAKNTVYLQMNRLKPEDTAVYDCAAAFSRDSRDLWGQGTQVTVSS”, the “polyreactivity (PSR sort gate)” value is given as “low polyreactivity”.

With “QVQLVESGGGLVQAGGSLRLSCAASGSTFDGNAMGWYRQAPGKERELVAAISYSGGRTYYADSVKGRFTISRDNAKNTVYLQMNSLKPEDTAVYYCATVRPKYSASSYLAYSIFRYGYWGQGTQVTVSS”, the “polyreactivity (PSR sort gate)” value is on record as “high polyreactivity”.

Consider “QVQLVESGGGLVQAGGSLRLSCAASGSIFRAYAMGWYRQAPGKERELVATISWSGTSTSYADSVKGRFTISRDNAKNTVYLQMNSLKPEDTAVYYCAAGYASGPRPQTAYYYWGQGTQVTVSS”, for which the “polyreactivity (PSR sort gate)” value is “low polyreactivity”.

On to “QVQLVESGGGLVQAGGSLRLSCAASGSIFRGNGMGWYTQAPGKERELVAAISRSGGRTYYADSVKGRFTISRDNAKNTVYLQMISLNPEDTAVYSCNAARSYQYDYWGQGTQVTVSS”, for which the “polyreactivity (PSR sort gate)” value was “high polyreactivity”.

With “QVQLVESGGGLVQAGGILSLSCAASGRTFCYYTMGWYRQAPGKERELVAAISSGGRTNYADSVKGRFTNSRDNAKITVYLQMISLKPEDTAVYYGATSLYYKYVERDYWGHGTQVTVSS”, the “polyreactivity (PSR sort gate)” value is “high polyreactivity”.

For “QVQLVESGGGLVQAGGSLRLSCAASGFIFNRNAMGWYRQAPGKEREFVAAISTRGAGTYYADSVKGRFTISRDNAKNTVYLQMNSLKPEDTAVYYCAADKFRYGYYNRYSKVGYDYWGQGTQVTVSS”, the “polyreactivity (PSR sort gate)” value is “high polyreactivity”.

Take “QVQLVESGGGLVQAGGSLRLSCAASGRTFGIYAMGWYRQAPGKERELVASITRSSGGTYYADSVKGRFTISRDNAKNTVYLQMNSLKPEDTAVYYCAARLQGRYKYGYWGQGTQVTVSS”: the “polyreactivity (PSR sort gate)” value is reported as “high polyreactivity”.

Regarding “QVQLVESGGGLVQAGGSLRLSCAASGSTFGVNAMGWYRPAPGKERELVAAISSSGSSTYADSVKGRFTISRDNAKNTVYLQMNSLKPEDTAVYYCNKTTLLTVEYDYWGQGTQVTVSS”, the “polyreactivity (PSR sort gate)” value is on record as “low polyreactivity”.

On to “QGQLVESGGGLVQAGGSLRLSCAASGSTVPQYAMGWYRQAPGKERELVAVITDSGGSTYYADSVKGRFTISRDNAKNTVYLQMNSLKPEDTAVYYCAARRWSPRSGLGYGYWGQGTQVTVSS”, for which the “polyreactivity (PSR sort gate)” value is given as “high polyreactivity”.

As to “QVQLVESGGGLVQAGGSLRLSCAASGRIFPAYVRVWYRQAPGKERELVAAISDRGGSTYYADSVKGRFTISRDTAKHTVSLQMHRLKPEDTAVYYCAKGGEVSQGYTDDYDYWGQGTQVSVSS”, the “polyreactivity (PSR sort gate)” value is listed as “low polyreactivity”.

Take “QVQLVESGGGLVQAGGSLRLSCAASGSTFYRYAMGWYRQAPGKERELVAAISKRGGSTYYADSVKGRFTISRDNAKNTVYLQMNSLKPEDTAVYYCAADPFHYGGGDDYWGQGTQVTVSS”: the “polyreactivity (PSR sort gate)” value is on record as “high polyreactivity”.

Turning to “QVQLVESGGGLVQAGGSLRLSCAASGRTFYRYAMGWYRQAPGKERELVAAISRSGTTYYADSVKGRFTISRDNAKNTVYLQMNSLKPEDTAVYFCAAKPAGRQRGGDYWGQGTQVTVSS”, the “polyreactivity (PSR sort gate)” value was “high polyreactivity”.

“QVQLVESGGGLVQAGGSLRLSCAASGRTFLGNAMGWYRQAPGKERELVAAIRYSGGRTYYADSVKGRFTISRDNANNTVYLQMNSLKPEDTAVYYCAAELDGSNYPLDYWGQGTKVTVSS”: the “polyreactivity (PSR sort gate)” value is “low polyreactivity”.

Source of the values: the nanobody polyreactivity screen of Harvey et al. (2022).
